Results from IntAct's records for PubMed 20643958.

B1: DNA primase large subunit (Homo sapiens), P49643-1 (parent)
chain: MEFSGRKWRKLRLAGDQRNASYPHCLQFYLQPPSENISLIEFENLAIDRVKLLKSVENLGVSYVKGTEQYQSKLESELRKLKFSYRENLEDEYEPRRRDHISHFILRLAYCQSEELRRWFIQQEMDLLRFRFSILPKDKIQDFLKDSQLQFEAISDEEKTLREQEIVASSPSLSGLKLGFESIYKIPFADALDLFRGRKVYLEDGFAYVPLKDIVAIILNEFRAKLSKALALTARSLPAVQSDERLQPLLNHLSHSYTGQDYSTQGNVGKISLDQIDLLSTKSFPPCMRQLHKALRENHHLRHGGRMQYGLFLKGIGLTLEQALQFWKQEFIKGKMDPDKFDKGYSYNIRHSFGKEGKRTDYTPFSCLKIILSNPPSQGDYHGCPFRHSDPELLKQKLQSYKISPGGISQILDLVKGTHYQVACQKYFEMIHNVDDCGFSLNHPNQFFCESQRILNGGKDIKKEPIQPETPQPKPSVQKTKDASSALASLNSSLEMDMEGLEDYFSEDS

Variants of: B1
Settings: with rfa2_human RPA2, P15927
Sequence of rfa2_human RPA2, P15927 (P15927 whole entry): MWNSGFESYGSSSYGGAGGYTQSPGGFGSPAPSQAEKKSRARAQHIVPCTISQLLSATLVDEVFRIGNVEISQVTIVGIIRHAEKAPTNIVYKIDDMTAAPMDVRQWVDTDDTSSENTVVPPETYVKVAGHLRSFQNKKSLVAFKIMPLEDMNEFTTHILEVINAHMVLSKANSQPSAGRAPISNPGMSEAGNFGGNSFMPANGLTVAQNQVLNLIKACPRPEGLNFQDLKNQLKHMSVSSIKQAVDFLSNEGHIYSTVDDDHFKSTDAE

Row | effect of a mutation on the interaction | Variant
1 | decreasing interaction | MEFSGRKWRKLRLAGDQRNASYPHCLQFYLQPPSENISLIEFENLAIDRVKLLKSVENLGVSYVKGTEQYQSKLESELRKLKFSYRENLEDEYEPRRRDHISHFILRLAYCQSEELRRWFIQQEMDLLRFRFSILPKDKIQDFLKDSQLQFEAISDEEKTLREQEIVASSPSLSGLKLGFESIYKIPFADALDLFRGRKVYLEDGFAYVPLKDIVAIILNEFRAKLSKALALTARSLPAVQSDERLQPLLNHLSHSYTGQDYSTQGNVGKISLDQIDLLSTKSFPPCMRQLHKALEENHHLRHGGRMQYGLFLKGIGLTLEQALQFWKQEFIKGKMDPDKFDKGYSYNIRHSFGKEGKRTDYTPFSCLKIILSNPPSQGDYHGCPFRHSDPELLKQKLQSYKISPGGISQILDLVKGTHYQVACQKYFEMIHNVDDCGFSLNHPNQFFCESQRILNGGKDIKKEPIQPETPQPKPSVQKTKDASSALASLNSSLEMDMEGLEDYFSEDS [R296E]
2 | decreasing interaction | MEFSGRKWRKLRLAGDQRNASYPHCLQFYLQPPSENISLIEFENLAIDRVKLLKSVENLGVSYVKGTEQYQSKLESELRKLKFSYRENLEDEYEPRRRDHISHFILRLAYCQSEELRRWFIQQEMDLLRFRFSILPKDKIQDFLKDSQLQFEAISDEEKTLREQEIVASSPSLSGLKLGFESIYKIPFADALDLFRGRKVYLEDGFAYVPLKDIVAIILNEFRAKLSKALALTARSLPAVQSDERLQPLLNHLSHSYTGQDYSTQGNVGKISLDQIDLLSTKSFPPCMRQLHKALRENHHLEHGGRMQYGLFLKGIGLTLEQALQFWKQEFIKGKMDPDKFDKGYSYNIRHSFGKEGKRTDYTPFSCLKIILSNPPSQGDYHGCPFRHSDPELLKQKLQSYKISPGGISQILDLVKGTHYQVACQKYFEMIHNVDDCGFSLNHPNQFFCESQRILNGGKDIKKEPIQPETPQPKPSVQKTKDASSALASLNSSLEMDMEGLEDYFSEDS [R302E]
3 | decreasing interaction | MEFSGRKWRKLRLAGDQRNASYPHCLQFYLQPPSENISLIEFENLAIDRVKLLKSVENLGVSYVKGTEQYQSKLESELRKLKFSYRENLEDEYEPRRRDHISHFILRLAYCQSEELRRWFIQQEMDLLRFRFSILPKDKIQDFLKDSQLQFEAISDEEKTLREQEIVASSPSLSGLKLGFESIYKIPFADALDLFRGRKVYLEDGFAYVPLKDIVAIILNEFRAKLSKALALTARSLPAVQSDERLQPLLNHLSHSYTGQDYSTQGNVGKISLDQIDLLSTKSFPPCMRQLHKALRENDHLRHGGRMQYGLFLKGIGLTLEQALQFWKQEFIKGKMDPDKFDKGYSYNIRHSFGKEGKRTDYTPFSCLKIILSNPPSQGDYHGCPFRHSDPELLKQKLQSYKISPGGISQILDLVKGTHYQVACQKYFEMIHNVDDCGFSLNHPNQFFCESQRILNGGKDIKKEPIQPETPQPKPSVQKTKDASSALASLNSSLEMDMEGLEDYFSEDS [H299D]

Variants of: B1
Settings: with rfa2_human RPA2, P15927
Remark: another data set of the same source

Row | effect of a mutation on the interaction | Variant
4 | disrupting interaction | MEFSGRKWRKLRLAGDQRNASYPHCLQFYLQPPSENISLIEFENLAIDRVKLLKSVENLGVSYVKGTEQYQSKLESELRKLKFSYRENLEDEYEPRRRDHISHFILRLAYCQSEELRRWFIQQEMDLLRFRFSILPKDKIQDFLKDSQLQFEAISDEEKTLREQEIVASSPSLSGLKLGFESIYKIPFADALDLFRGRKVYLEDGFAYVPLKDIVAIILNEFRAKLSKALALTARSLPAVQSDERLQPLLNHLSHSYTGQDYSTQGNVGKISLDQIDLLSTKSFPPCMRQLHKALRENHHLEHGGRMQYGLFLKGIGLTLEQALQFWKQEFIKGKMDPDKFDKGYSYNIRHSFGKEGKRTDYTPFSCLKIILSNPPSQGDYHGCPFRHSDPELLKQKLQSYKISPGGISQILDLVKGTHYQVACQKYFEMIHNVDDCGFSLNHPNQFFCESQRILNGGKDIKKEPIQPETPQPKPSVQKTKDASSALASLNSSLEMDMEGLEDYFSEDS [R302E]
